Target: Biotinylated human IL-2Rβ ECD (Homo sapiens, UniProt P14784, biotinylated)
Experiment: SPR

Sequence of Biotinylated human IL-2Rβ ECD (P14784 27-240): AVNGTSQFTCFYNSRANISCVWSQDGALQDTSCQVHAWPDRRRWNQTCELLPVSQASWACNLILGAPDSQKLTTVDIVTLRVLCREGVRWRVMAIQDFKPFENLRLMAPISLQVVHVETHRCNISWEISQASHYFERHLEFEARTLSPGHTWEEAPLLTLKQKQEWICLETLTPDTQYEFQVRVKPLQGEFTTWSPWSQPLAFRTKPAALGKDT

binding result	Binder
binds	β-VHH3 (VHH) VHH: QVQLQESGGGSVQAGGSLRLSCTASGFTFDDEDMGWYRQAPGNECELVSSIGSLGRRYYADSVKDRFAISQDNAKNTVYLQMNSLKPEDTAVYYCAATKGGSWLDSILASCQGAFGYWGQGTQVTVSS
binds	β-VHH1 (VHH) VHH: QVQLQESGGGSVQAGGSLRLSCVTSGYTYSSANMAWFRQAPGKEREGVAIITPSGRATTYADSVKGRFTISRDNAANTLYLQMNSLKPEDTAMYYCAADTPPYSGLWYAERTYNYWGQGTQVTVSS

The remaining lines, values behind:

Binder	binding result
β-VHH4 (VHH) VHH: QVQLQESGGGSVQAGGSLRLSCAASGSTSCSSVMRWYRQAPGKEREFVSSINSDRRTVYADSVKGRFTISQDNAKSTLYLQMNSLKAEDTATYYCQRELYGDSWCQGNYWGQGTQVTVSS	binds
β-VHH6 (VHH) VHH: QVQLQESGGGSVQAGGSLRLSCAASSYTISSVCMGWFRQAPGKEREGVAGIAPDGSTGYGDSVKGRFTISKDNAKNTLYLQMNSLKPEDTAMYYCAAASPGRCFLPRTALEPALYYNWGQGTQVTVSS	binds

Source: PMC9021867 (Cell, 2022)
